Assay [1] addresses T1, Bcl-XL-GST fusion protein (Homo sapiens, UniProt Q07817).
T1 construct: made in house; host or cells: E. coli BL21 (DE3) pLysS
As to the kind of experiment: Free purified polypeptide binding to Bcl-XL-GST fusion protein (additional selection, FIG. 9). The conditions noted are these: purified free polypeptides. As for the experimental part: (§1) Detection of a polypeptide binding to a Bcl-XL-glutathione S-transferase (GST) fusion protein was carried out as follows. Twenty microliters of glutathione Sepharose 4B slurry (AP Biotech) was aliquoted to a microcentrifuge tube and washed with PBS. The Bcl-XL-GST fusion protein (60 μg), prepared as describe above, was added and allowed to bind to the Sepharose beads for 1 hr at 4° C. The beads were then re-washed in selection buffer (50 mM Tris-HCL pH 7.5, 150 mM KCl, 0.05% Triton X-100, 0.5 mg/ml BSA, and 0.1 mg/ml salmon sperm DNA). The Bcl-XL-GST beads were resuspended in 100 μl of selection buffer (approximately 11.5 μM Bcl-XL) and ^35S-labeled mRNA display construct or free peptide was added (approximately 10-60 nM) and incubated on a rotator for 1 hr at 4° C. The reaction was then transferred to a microcentrifuge column (BioRad) and unbound mRNA display constructs or free peptides were removed by a 10 sec spin at 1,000 rpm. The Sepharose beads were then washed three times with 500 μl of selection buffer. The extent of binding between the Bcl-XL-GST fusion protein and the mRNA display constructs or free peptides was determined by scintillation counting each fraction, including the recovered beads. […]

Assay [2] addresses human Bcl-XL-GST fusion protein (human) [GST: P08515]. Description: purified labeled free peptide on immobilized Bcl-XL-GST.
In assay [3] the target is T2, human Bcl-XL protein produced as a GST fusion (Homo sapiens, UniProt Q07817).
T2 construct: made in house; host or cells: E. coli BL21 (DE3) pLysS
As to the kind of experiment: Binding of mRNA display constructs to Bcl-XL-GST fusion protein immobilized on glutathione Sepharose beads (scintillation counting). The conditions noted are these: BH3 domain or control peptides as individual mRNA display constructs, 1 hr 4° C. On the procedure: Detection of a polypeptide binding to a Bcl-XL-glutathione S-transferase (GST) fusion protein was carried out as follows. Twenty microliters of glutathione Sepharose 4B slurry (AP Biotech) was aliquoted to a microcentrifuge tube and washed with PBS. The Bcl-XL-GST fusion protein (60 μg), prepared as describe above, was added and allowed to bind to the Sepharose beads for 1 hr at 4° C. The beads were then re-washed in selection buffer (50 mM Tris-HCL pH 7.5, 150 mM KCl, 0.05% Triton X-100, 0.5 mg/ml BSA, and 0.1 mg/ml salmon sperm DNA). […] The extent of binding between the Bcl-XL-GST fusion protein and the mRNA display constructs or free peptides was determined by scintillation counting each fraction, including the recovered beads.
Members of the Bcl-2 family of apoptotic proteins function via homo- and heterodimerization, occurring primarily through the binding of a single α-helix designated the BH3 domain (Bcl-2 Homology domain 3) in a corresponding pocket produced by three α-helices in the interacting partner (Diaz et al., J. Biol. Chem. 272:11350-11355, 1997; and Sattler et al., Science 275:983-986, 1997). […] The amount of peptide bound to the beads was determined by scintillation counting and graphed as the percent of input counts bound (FIG. 2B).

Assay [4] concerns the target T3, human Bcl-XL-GST fusion protein (human, UniProt P08515 1-218 = GST; Q07817 1-211).
T3 construct: Made in E. coli, immobilized on glutathione Sepharose beads; whole entry named; also called Bcl-XL-glutathione S-transferase (GST) fusion protein; GST-BCL-XL
As to the kind of experiment: labeled free peptide on immobilized Bcl-XL-GST with Bak BH3 competitor. On the procedure:
Only three of the selected proteins (Bim, Bak, and Bax) were previously known to contain a BH3 domain. In order to determine if the other proteins bound to the BH3 domain binding site on Bcl-XL, a competition assay was performed. The Bak BH3 domain peptide used as a positive control was prepared by chemical synthesis and used to compete with individual Bcl-XL-binding polypeptides in a Bcl-XL binding assay. […] At a fixed concentration of immobilized Bcl-XL, the Bak BH3 domain-containing peptide […] (SEQ ID NO: 152), also containing a FLAG-M2 epitope, was added at the indicated concentration along with a trace amount of a selected Talin fragment. After binding for 1 hour, the unbound material was removed and the bound protein was quantitated. The bound protein was assayed by scintillation counting, normalized to that bound in the absence of competitor, and plotted versus competitor concentration.
A competition assay was performed for each of the selected Bcl-XL-binding polypeptides using 20 μM Bak BH3 competitor based on the titration shown in FIG. 6.

The target of assay [5] is T3, human Bcl-XL-GST fusion protein. As to the kind of experiment: 35S-labeled mRNA display construct on Bcl-XL-GST glutathione Sepharose beads, scintillation counting. As for the experimental part:
as §1, with “³⁵S-labeled” for “^35S-labeled”

For assay [6] the target is unchanged. Description: labeled free peptide on Bcl-XL-GST beads, immobilized target varied from 11 nM to 28 µM. On the procedure:
Detection of a polypeptide binding to a Bcl-XL-glutathione S-transferase (GST) fusion protein was carried out as follows. Twenty microliters of glutathione Sepharose 4B slurry (AP Biotech) was aliquoted to a microcentrifuge tube and washed with PBS. The Bcl-XL-GST fusion protein (60 μg), prepared as describe above, was added and allowed to bind to the Sepharose beads for 1 hr at 4° C. The beads were then re-washed in selection buffer (50 mM Tris-HCL pH 7.5, 150 mM KCl, 0.05% Triton X-100, 0.5 mg/ml BSA, and 0.1 mg/ml salmon sperm DNA). The Bcl-XL-GST beads were resuspended in 100 μl of selection buffer (approximately 11.5 μM Bcl-XL) and ³⁵S-labeled mRNA display construct or free peptide was added (approximately 10-60 nM) and incubated on a rotator for 1 hr at 4° C. […] The extent of binding between the Bcl-XL-GST fusion protein and the mRNA display constructs or free peptides was determined by scintillation counting each fraction, including the recovered beads.
Purified radioactively labeled protein from the individual clones was incubated with immobilized Bcl-XL-GST for one hour and, after washing, the amount bound was determined by scintillation counting. […] The amount of peptide bound to Bcl-XL was determined by scintillation counting and normalized to that bound at the highest concentration. […]

T3 sequence (P08515 1-218, tags or fused parts left off): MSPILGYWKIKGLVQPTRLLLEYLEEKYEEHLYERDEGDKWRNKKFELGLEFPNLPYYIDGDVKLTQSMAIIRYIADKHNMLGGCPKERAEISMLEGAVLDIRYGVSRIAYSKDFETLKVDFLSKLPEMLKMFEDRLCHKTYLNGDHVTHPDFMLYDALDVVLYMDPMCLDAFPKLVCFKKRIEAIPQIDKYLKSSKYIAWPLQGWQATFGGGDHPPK
T1 sequence (Q07817 1-211): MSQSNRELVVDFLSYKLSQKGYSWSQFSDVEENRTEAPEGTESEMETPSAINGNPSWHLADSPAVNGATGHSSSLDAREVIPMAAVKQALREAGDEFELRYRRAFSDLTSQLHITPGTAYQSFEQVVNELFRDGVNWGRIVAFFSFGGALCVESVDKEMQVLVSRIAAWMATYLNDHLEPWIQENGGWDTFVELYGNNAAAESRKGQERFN
T2 sequence (Q07817 1-211): as above
Chain of human Bcl-XL-GST fusion protein (human) [GST: P08515] (P08515 1-218, tags or fused parts left off): as the sequence (P08515 1-218, tags or fused parts left off) above

With “SRP9: selected SRP9 polypeptide of the additional selection, purified free polypeptide (IGEEFSRAAEKLYLAV)”, the “Binding to the Bcl-XL-GST fusion protein” value in assay [1] was found to be 0.65%.

In the case of “Bax (clone AttB-Hc-7) (from UniProt Q07812 40-95) (peptide)”, the percent bound in assay [2] stood at 32%.

For the molecule “Bmf: selected Bmf polypeptide of the additional selection, purified free polypeptide (KAEVQIARKLQCIADQFHRLHVL)”, the “Binding to the Bcl-XL-GST fusion protein” value in assay [1] came out at 6%.

For the molecule “Bcl-2: BH3 domain of Bcl-2 prepared as mRNA display construct (FIG. 2A) (PVVHLTLRQAGDDFSR)”, in assay [3], the “percent of input counts bound to Bcl-XL-GST” value is “no binding was observed”.

B1: clone t53 (peptide)
chain: LDPVKDVLILSALRRMLWAADDFLEDLPFEQIG
notes: mRNA display clone from a known polypeptide
In the case of B1, in assay [4], the binding result is “binds”.

B2: BH3 domain of Bcl-2, mRNA display construct (peptide, UniProt P10415 91-106, looked up)
peptide: PVVHLTLRQAGDDFSR
notes: domain: BH3 domain; Peptide fused to its mRNA through puromycin; also called BH3 helix from Bcl-2
As to B2, in assay [5], the binding result is “no binding”.

B3: Bak BH3 domain-containing peptide MGQVGRQLAIIGDDINRDYKDDDDKASA (peptide)
peptide: MGQVGRQLAIIGDDINRDYKDDDDKASA
notes: Chemically synthesized free peptide; also called selected Bak fragment
Consider B3, for which the binding result in assay [6] is “binds”.
